The values below come from patent publication US20030109416A1 (MOCHIDA PHARMACEUTICAL, published 2003).

The target in this experiment is T1, extracellular domain of the human Fas ligand (produced in Pichia pastoris GS115) (human, UniProt P48023 103-281).
T1 construct: extracellular domain; also called human Fas ligand extracellular domain
T1 sequence (looked up): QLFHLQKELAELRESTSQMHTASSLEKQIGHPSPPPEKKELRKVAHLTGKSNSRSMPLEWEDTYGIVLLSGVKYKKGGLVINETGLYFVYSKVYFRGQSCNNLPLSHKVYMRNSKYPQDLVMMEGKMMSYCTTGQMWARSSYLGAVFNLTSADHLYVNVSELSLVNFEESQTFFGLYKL
The experiment in a line: affinity chromatography on immobilized hFas-Fc.

B1: hFas-Fc (chimeric protein of the extracellular domain of the human Fas antigen and Fc region of human IgG1) (Fc fusion, UniProt P25445 26-173, looked up)
chain: QVTDINSKGLELRKTVTTVETQNLEGLHHDGQFCHKPCPPGERKARDCTVNGDEPDCVPCQEGKEYTDKAHFSSKCRRCRLCDEGHGLEVEINCTRTQNTKCRCKPNFFCNSTVCEHCDPCTKCEHGIIKECTLTSNTKCKEEGSRSN
notes: extracellular domain; The construct limits are only in WO 95/13293; also called human Fas-Fc; product of plasmid pBF-Fc1; not shown: Fc region of human IgG1
On to B1, for which the binding result is recorded as “binds”.
